Assay results taken from the supplement of paper PMC9170038.

System: K4 kissing-loop RNA reporter
Test: apparent KD of K4 kissing-loop reporter; higher = weaker reporter binding
Conditions: Eterna round: R107
Procedure: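 RNA-MaP round R107: designed RNA switches with theophylline, tryptophan, arginine or FMN aptamers are transcribed on-chip within common flanks. They are titrated with a labelled K4 kissing-loop RNA reporter in RNA-MaP buffer (100 mM Tris pH 7.5, 80 mM KCl, 4 mM MgCl2), without ligand or with the indicated ligand. Median apparent KD per design.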

[1] = input ligand: theophylline 20 uM
[2] = input ligand: tryptophan 2.4 mM
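Note: bound reporter read as fluorescence of individual clusters on recovered sequencing chips by microscopy, with normalized cluster intensities fitted with a binding model.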

CUGGGUUGACGAAAAGUCAACAAAUGAGAAGGAGCGCACGAAAGUGCAGGUAGGUCGCUCAAUCCAGUGAUGUUGGAUCAUCCAG [#SwitchBubble 12 #K4Late]
apparent KD of K4 kissing-loop reporter (input ligand: FMN 200 uM): 571 nM
apparent KD of K4 kissing-loop reporter (input ligand: arginine 13.2 mM): 601 nM
apparent KD of K4 kissing-loop reporter (input ligand: none): 649 nM
apparent KD of K4 kissing-loop reporter [1]: 638 nM
apparent KD of K4 kissing-loop reporter [2]: 472 nM

AGUGAUGUGGGAAGGAGCGGUAUAUGAGUUCAGUGAUGUUGAAGUGAUGAUAUAGUGAUGUGCCAGGUAGGUCGCCUAGAUGUUA [KL-XARG-B5]
apparent KD of K4 kissing-loop reporter (input ligand: FMN 200 uM): 281 nM
apparent KD of K4 kissing-loop reporter (input ligand: arginine 13.2 mM): 144 nM
apparent KD of K4 kissing-loop reporter (input ligand: none): 210 nM
apparent KD of K4 kissing-loop reporter [1]: 146 nM
apparent KD of K4 kissing-loop reporter [2]: 202 nM

GCCAUCUACUAAGGAUAUUAAGUCAAUAUUUGUGGUGCCAUCUGUCGUUCAGGGCAGUGAUGUUGCUAAGAAGGUAGUCUGUCGG [theeternabot_exclusion_KL_FMN_B_39]
apparent KD of K4 kissing-loop reporter (input ligand: FMN 200 uM): 757 nM
apparent KD of K4 kissing-loop reporter (input ligand: arginine 13.2 mM): 441 nM
apparent KD of K4 kissing-loop reporter (input ligand: none): 636 nM
apparent KD of K4 kissing-loop reporter [1]: 593 nM
apparent KD of K4 kissing-loop reporter [2]: 407 nM

CAUCUCAUGAAAUGAGAUGUCAUCAGUGAAGGAGCGCUAUUAGCAGCAGGUAGGUCGCACUGAAGCGGAGUGAUGUUCUGUAUGA [Arg A SS t3]
apparent KD of K4 kissing-loop reporter (input ligand: FMN 200 uM): 170 nM
apparent KD of K4 kissing-loop reporter (input ligand: arginine 13.2 mM): 220 nM
apparent KD of K4 kissing-loop reporter (input ligand: none): 293 nM
apparent KD of K4 kissing-loop reporter [1]: 214 nM
apparent KD of K4 kissing-loop reporter [2]: 150 nM

GGUCGAGUGAUGUUCGAUGUAGUGCAUUCAGAGGAUAUAGGAUUGGCUAGAAGGCUGAAACCUUCUUCGAGUGAUGUUCGAGGAU [Same State FMN A GF5]
apparent KD of K4 kissing-loop reporter (input ligand: FMN 200 uM): 130 nM
apparent KD of K4 kissing-loop reporter (input ligand: arginine 13.2 mM): 83.8 nM
apparent KD of K4 kissing-loop reporter (input ligand: none): 112 nM
apparent KD of K4 kissing-loop reporter [1]: 90.1 nM
apparent KD of K4 kissing-loop reporter [2]: 77.8 nM

UGAUAGGACAGAAGGAGCGGGAGUGAUGUUCCCAAAAUGGAAGGUCGACAAAGUCGACCCUCCCAGGUAGGUCGCUGUCCUAUCU [ArgBX 6 #SwitchBubble #StaticStem]
apparent KD of K4 kissing-loop reporter (input ligand: FMN 200 uM): 91.3 nM
apparent KD of K4 kissing-loop reporter (input ligand: arginine 13.2 mM): 101 nM
apparent KD of K4 kissing-loop reporter (input ligand: none): 99.6 nM
apparent KD of K4 kissing-loop reporter [1]: 99.2 nM
apparent KD of K4 kissing-loop reporter [2]: 86.7 nM

UGACUGGAUGGAAGGAGCGCUAAACUCCUAGUGAUGUUAGGGAUACGAGACAAAGUCUUGAAGCAGGUAGGUCGCCAUCUAGUCU [FiskerMod 10 - Jieux - Same State - Arginine B]
apparent KD of K4 kissing-loop reporter (input ligand: FMN 200 uM): 170 nM
apparent KD of K4 kissing-loop reporter (input ligand: arginine 13.2 mM): 124 nM
apparent KD of K4 kissing-loop reporter (input ligand: none): 144 nM
apparent KD of K4 kissing-loop reporter [1]: 144 nM
apparent KD of K4 kissing-loop reporter [2]: 138 nM

ACUAUGGAGUGAUGUUCCCGCGUCAUUGAUACCAGAAUGUAUACCUUCCCUUGGCAGCAAUUCAUCGCACGUAUACUUAUACAAG [theeternabot_sameState_KL_Theo_A_31]
apparent KD of K4 kissing-loop reporter (input ligand: FMN 200 uM): 585 nM
apparent KD of K4 kissing-loop reporter (input ligand: arginine 13.2 mM): 541 nM
apparent KD of K4 kissing-loop reporter (input ligand: none): 665 nM
apparent KD of K4 kissing-loop reporter [1]: 841 nM
apparent KD of K4 kissing-loop reporter [2]: 541 nM

CAUACGCAUGGAGGAUAUGAGAUUUCUCAUAUUAUUUAUUAUUCUCAGUGAUGUUGGGAUUUAAACUCAGAAGGCCAUGUGUAUG [Ex FMN B 8]
apparent KD of K4 kissing-loop reporter (input ligand: FMN 200 uM): 252 nM
apparent KD of K4 kissing-loop reporter (input ligand: arginine 13.2 mM): 176 nM
apparent KD of K4 kissing-loop reporter (input ligand: none): 175 nM
apparent KD of K4 kissing-loop reporter [1]: 244 nM
apparent KD of K4 kissing-loop reporter [2]: 199 nM

CAUGCCAUGAUCCUCCUGGUAUCUCCUGAUACCAGCGUGCUGACACGCCCUUGGCAGCAGGAGUCGAGAGUGAUGUUGUCGAGAA [KL-SSTheo-A9 #analogue]
apparent KD of K4 kissing-loop reporter (input ligand: FMN 200 uM): 568 nM
apparent KD of K4 kissing-loop reporter (input ligand: arginine 13.2 mM): 174 nM
apparent KD of K4 kissing-loop reporter (input ligand: none): 184 nM
apparent KD of K4 kissing-loop reporter [1]: 373 nM
apparent KD of K4 kissing-loop reporter [2]: 328 nM

UGACUGGACUGAAGGAGCGCAAAACUCCUAGUGAUGUUAGGAAAACGAGACAAAGUCUCGAUGCAGGUAGGUCGCAGUCUAGUCU
apparent KD of K4 kissing-loop reporter (input ligand: FMN 200 uM): 209 nM
apparent KD of K4 kissing-loop reporter (input ligand: arginine 13.2 mM): 146 nM
apparent KD of K4 kissing-loop reporter (input ligand: none): 185 nM
apparent KD of K4 kissing-loop reporter [1]: 194 nM
apparent KD of K4 kissing-loop reporter [2]: 182 nM

UGUCAUUGGUCUGAUACCAGUUAGACCGAUAGGUCAAAACUGGAGUGAUGUUCCCAAAAUAACCCUUGGCAGCAGACCGAUGACU [TheoBS 3 #SwitchBubble #StaticStem]
apparent KD of K4 kissing-loop reporter (input ligand: FMN 200 uM): 280 nM
apparent KD of K4 kissing-loop reporter (input ligand: arginine 13.2 mM): 149 nM
apparent KD of K4 kissing-loop reporter (input ligand: none): 152 nM
apparent KD of K4 kissing-loop reporter [1]: 282 nM
apparent KD of K4 kissing-loop reporter [2]: 191 nM

CGAUGUUCCUGGGAUACCAGUCGGAGUCUCAGAGCUCGGAGUGAUGUUCUGGGAUGUUUCGGCCCUUGGCAGCUCUGGGACUCCC [#2 Exclusion - Theophylline B Attempt #23 (HarryS)]
apparent KD of K4 kissing-loop reporter (input ligand: FMN 200 uM): 843 nM
apparent KD of K4 kissing-loop reporter (input ligand: arginine 13.2 mM): 615 nM
apparent KD of K4 kissing-loop reporter (input ligand: none): 818 nM
apparent KD of K4 kissing-loop reporter [1]: 682 nM
apparent KD of K4 kissing-loop reporter [2]: 722 nM

GUUACGCAUGGAAGGAGCGCUCUCAUAUUUAAUAACACAGUGAUGUUGUGAAUUUAUAUAAAGCAGGUAGGUCGCCAUGUGUAAC [Ex Arginine B K4 6]
apparent KD of K4 kissing-loop reporter (input ligand: FMN 200 uM): 336 nM
apparent KD of K4 kissing-loop reporter (input ligand: arginine 13.2 mM): 281 nM
apparent KD of K4 kissing-loop reporter (input ligand: none): 326 nM
apparent KD of K4 kissing-loop reporter [1]: 276 nM
apparent KD of K4 kissing-loop reporter [2]: 258 nM

UUUAAAUAUAGUGAUGUUAUAUAACAAUGACGAGGACCGGUACGGCCGCCACUCGAGAGAGAUAAUGGUCUUACAAAUGUAAGUU [AstrosSSTryA#9]
apparent KD of K4 kissing-loop reporter (input ligand: FMN 200 uM): 567 nM
apparent KD of K4 kissing-loop reporter (input ligand: arginine 13.2 mM): 646 nM
apparent KD of K4 kissing-loop reporter (input ligand: none): 793 nM
apparent KD of K4 kissing-loop reporter [1]: 822 nM
apparent KD of K4 kissing-loop reporter [2]: 481 nM

GAUUCUAGCGAAAGUGAUGUUUUCGAGGAUACCAGUGCCACUUGACACCCUUGGCAGCCUACCCGUCAUCACAAGUGGCGUUAAA [theeternabot_exclusion_KL_Theo_A_28]
apparent KD of K4 kissing-loop reporter (input ligand: FMN 200 uM): 136 nM
apparent KD of K4 kissing-loop reporter (input ligand: arginine 13.2 mM): 114 nM
apparent KD of K4 kissing-loop reporter (input ligand: none): 129 nM
apparent KD of K4 kissing-loop reporter [1]: 138 nM
apparent KD of K4 kissing-loop reporter [2]: 118 nM

UUUGUAUAGGGAAGGAGCGUGAAUGAUAAAGAAUAUAGUGAUGUUAUAUAGAAGAAAGAAUCACAGGUAGGUCGCCCGGAGGAGG [SSArgB.H]
apparent KD of K4 kissing-loop reporter (input ligand: FMN 200 uM): 599 nM
apparent KD of K4 kissing-loop reporter (input ligand: arginine 13.2 mM): 491 nM
apparent KD of K4 kissing-loop reporter (input ligand: none): 552 nM
apparent KD of K4 kissing-loop reporter [1]: 450 nM
apparent KD of K4 kissing-loop reporter [2]: 361 nM
